# Assay results as given in paper PMC4233993, “Comparison of three tannases cloned from closely related lactobacillus species: L. Plantarum, L. Paraplantarum, and L. Pentosus” (BMC Microbiology, 2014).
# Tests used:
# Assay in all cases: HPLC of reaction products, Hanes-Woolf plot
# Conditions in all cases: 50 mM Tris-HCl pH 8.0, 37°C, 33 nM enzyme
# [1] = system: T1, O=C(O[C@@H]1Cc2c(O)cc(O)cc2O[C@H]1c1ccc(O)c(O)c1)c1cc(O)c(O)c(O)c1; format: biochemical, Lactiplantibacillus paraplantarum
# T1 construct: full ORF (1410 bp, 469 residues, 50,708 Da), C-terminal His tag, fused to YbdK signal peptide in pBE-S, expressed in Bacillus subtilis RIK 1285, purified from cells
# Excerpt: (§1) HPLC of reaction products, Hanes-Woolf plot on TanLpa
# [2] = system: T2, COc1cc(C(=O)O[C@@H]2Cc3c(O)cc(O)cc3O[C@@H]2c2cc(O)c(O)c(O)c2)cc(O)c1O; format: biochemical, Lactiplantibacillus paraplantarum
# T2 construct: full ORF (1410 bp, 469 residues, 50,708 Da), C-terminal His tag, fused to YbdK signal peptide in pBE-S, expressed in Bacillus subtilis RIK 1285, purified from cells
# Excerpt: as §1
# [3] = system: T3, O=C(O[C@@H]1Cc2c(O)cc(O)cc2O[C@@H]1c1ccc(O)c(O)c1)c1cc(O)c(O)c(O)c1; format: biochemical, Lactiplantibacillus paraplantarum
# T3 construct: full ORF (1410 bp, 469 residues, 50,708 Da), C-terminal His tag, fused to YbdK signal peptide in pBE-S, expressed in Bacillus subtilis RIK 1285, purified from cells
# Excerpt: as §1
# [4] = system: T4, O=C(O[C@@H]1Cc2c(O)cc(O)cc2O[C@@H]1c1cc(O)c(O)c(O)c1)c1cc(O)c(O)c(O)c1; format: biochemical, Lactiplantibacillus paraplantarum
# T4 construct: full ORF (1410 bp, 469 residues, 50,708 Da), C-terminal His tag, fused to YbdK signal peptide in pBE-S, expressed in Bacillus subtilis RIK 1285, purified from cells
# Excerpt: as §1
# [5] = system: T5, O=C(O[C@@H]1Cc2c(O)cc(O)cc2O[C@H]1c1cc(O)c(O)c(O)c1)c1cc(O)c(O)c(O)c1; format: biochemical, Lactiplantibacillus paraplantarum
# T5 construct: full ORF (1410 bp, 469 residues, 50,708 Da), C-terminal His tag, fused to YbdK signal peptide in pBE-S, expressed in Bacillus subtilis RIK 1285, purified from cells
# Excerpt: as §1
# COC(=O)c1cc(O)c(O)c(O)c1 [6] = system: T6, COC(=O)c1cc(O)c(O)c(O)c1; format: biochemical, Lactiplantibacillus paraplantarum
# T6 construct: full ORF (1410 bp, 469 residues, 50,708 Da), C-terminal His tag, fused to YbdK signal peptide in pBE-S, expressed in Bacillus subtilis RIK 1285, purified from cells
# Excerpt: as §1
# [7] = system: T7, O=C(O[C@@H]1Cc2c(O)cc(O)cc2O[C@@H]1c1cc(O)c(O)c(O)c1)c1cc(O)c(O)c(O)c1; format: biochemical, Lactiplantibacillus pentosus
# T7 construct: full ORF (1413 bp, 470 residues, 51,193 Da), C-terminal His tag, fused to YbdK signal peptide in pBE-S, expressed in Bacillus subtilis RIK 1285, purified from cells
# Excerpt: (§2) HPLC of reaction products, Hanes-Woolf plot on TanLpe
# [8] = system: T8, COc1cc(C(=O)O[C@@H]2Cc3c(O)cc(O)cc3O[C@@H]2c2cc(O)c(O)c(O)c2)cc(O)c1O; format: biochemical, Lactiplantibacillus pentosus
# T8 construct: full ORF (1413 bp, 470 residues, 51,193 Da), C-terminal His tag, fused to YbdK signal peptide in pBE-S, expressed in Bacillus subtilis RIK 1285, purified from cells
# Excerpt: as §2
# [9] = system: T9, O=C(O[C@@H]1Cc2c(O)cc(O)cc2O[C@H]1c1cc(O)c(O)c(O)c1)c1cc(O)c(O)c(O)c1; format: biochemical, Lactiplantibacillus pentosus
# T9 construct: full ORF (1413 bp, 470 residues, 51,193 Da), C-terminal His tag, fused to YbdK signal peptide in pBE-S, expressed in Bacillus subtilis RIK 1285, purified from cells
# Excerpt: as §2
# [10] = system: T10, O=C(O[C@@H]1Cc2c(O)cc(O)cc2O[C@@H]1c1ccc(O)c(O)c1)c1cc(O)c(O)c(O)c1; format: biochemical, Lactiplantibacillus pentosus
# T10 construct: full ORF (1413 bp, 470 residues, 51,193 Da), C-terminal His tag, fused to YbdK signal peptide in pBE-S, expressed in Bacillus subtilis RIK 1285, purified from cells
# Excerpt: as §2
# [11] = system: T11, O=C(O[C@@H]1Cc2c(O)cc(O)cc2O[C@H]1c1ccc(O)c(O)c1)c1cc(O)c(O)c(O)c1; format: biochemical, Lactiplantibacillus pentosus
# T11 construct: full ORF (1413 bp, 470 residues, 51,193 Da), C-terminal His tag, fused to YbdK signal peptide in pBE-S, expressed in Bacillus subtilis RIK 1285, purified from cells
# Excerpt: as §2
# COC(=O)c1cc(O)c(O)c(O)c1 [12] = system: T12, COC(=O)c1cc(O)c(O)c(O)c1; format: biochemical, Lactiplantibacillus pentosus
# T12 construct: full ORF (1413 bp, 470 residues, 51,193 Da), C-terminal His tag, fused to YbdK signal peptide in pBE-S, expressed in Bacillus subtilis RIK 1285, purified from cells
# Excerpt: as §2
# [13] = substrate: COC(=O)c1cc(O)c(O)c(O)c1; format: biochemical, Lactiplantibacillus plantarum
# Excerpt: (§3) HPLC of reaction products, Hanes-Woolf plot on TanLpl
# [14] = substrate: COc1cc(C(=O)O[C@@H]2Cc3c(O)cc(O)cc3O[C@@H]2c2cc(O)c(O)c(O)c2)cc(O)c1O; format: biochemical, Lactiplantibacillus plantarum
# Excerpt: as §3
# [15] = substrate: O=C(O[C@@H]1Cc2c(O)cc(O)cc2O[C@H]1c1cc(O)c(O)c(O)c1)c1cc(O)c(O)c(O)c1; format: biochemical, Lactiplantibacillus plantarum
# Excerpt: as §3
# [16] = substrate: O=C(O[C@@H]1Cc2c(O)cc(O)cc2O[C@H]1c1ccc(O)c(O)c1)c1cc(O)c(O)c(O)c1; format: biochemical, Lactiplantibacillus plantarum
# Excerpt: as §3
# [17] = substrate: O=C(O[C@@H]1Cc2c(O)cc(O)cc2O[C@@H]1c1ccc(O)c(O)c1)c1cc(O)c(O)c(O)c1; format: biochemical, Lactiplantibacillus plantarum
# Excerpt: as §3
# [18] = substrate: O=C(O[C@@H]1Cc2c(O)cc(O)cc2O[C@@H]1c1cc(O)c(O)c(O)c1)c1cc(O)c(O)c(O)c1; format: biochemical, Lactiplantibacillus plantarum
# Excerpt: as §3
molecule,measurement,setting,value
TanLpa (Lactiplantibacillus paraplantarum),Km,[1],50 ± 5 µM
same,kcat,[1],8.1 ± 0.04 s⁻¹
same,kcat/Km,[1],182000 ± 27700 M⁻¹ s⁻¹
same,Km,[2],40 ± 4 µM
same,kcat,[2],0.35 ± 0.07 s⁻¹
same,kcat/Km,[2],9020 ± 2280 M⁻¹ s⁻¹
same,Km,[3],60 ± 10 µM
same,kcat,[3],11.08 ± 0.44 s⁻¹
same,kcat/Km,[3],195000 ± 21500 M⁻¹ s⁻¹
same,Km,[4],60 ± 10 µM
same,kcat,[4],14.29 ± 0.82 s⁻¹
same,kcat/Km,[4],261000 ± 46500 M⁻¹ s⁻¹
same,Km,[5],60 ± 2 µM
same,kcat,[5],9.2 ± 0.09 s⁻¹
same,kcat/Km,[5],155000 ± 7970 M⁻¹ s⁻¹
same,Km,COC(=O)c1cc(O)c(O)c(O)c1 [6],500 ± 60 µM
same,kcat,COC(=O)c1cc(O)c(O)c(O)c1 [6],72.73 ± 3.34 s⁻¹
same,kcat/Km,COC(=O)c1cc(O)c(O)c(O)c1 [6],145000 ± 10600 M⁻¹ s⁻¹
TanLpe (Lactiplantibacillus pentosus),Km,[7],60 ± 20 µM
same,kcat,[7],0.44 ± 0.02 s⁻¹
same,kcat/Km,[7],7250 ± 2510 M⁻¹ s⁻¹
same,Km,[8],5 ± 0.9 µM
same,kcat,[8],0.06 ± 0.02 s⁻¹
same,kcat/Km,[8],10600 ± 1330 M⁻¹ s⁻¹
same,Km,[9],70 ± 2 µM
same,kcat,[9],1.12 ± 0.13 s⁻¹
same,kcat/Km,[9],14300 ± 1950 M⁻¹ s⁻¹
same,Km,[10],50 ± 10 µM
same,kcat,[10],0.42 ± 0.03 s⁻¹
same,kcat/Km,[10],8630 ± 1170 M⁻¹ s⁻¹
same,Km,[11],80 ± 4 µM
same,kcat,[11],1.48 ± 0.11 s⁻¹
same,kcat/Km,[11],19200 ± 2360 M⁻¹ s⁻¹
same,Km,COC(=O)c1cc(O)c(O)c(O)c1 [12],870 ± 410 µM
same,kcat,COC(=O)c1cc(O)c(O)c(O)c1 [12],15.95 ± 3.13 s⁻¹
same,kcat/Km,COC(=O)c1cc(O)c(O)c(O)c1 [12],18800 ± 3080 M⁻¹ s⁻¹
"TanLpl (Lactiplantibacillus plantarum) (protein, full ORF (469 residues, ~50 kDa), C-terminal His tag, fused to YbdK signal peptide in pBE-S, expressed in Bacillus subtilis RIK 1285, purified from cells) MSNRLIFDADWLVPEQVQVAGQAIQYYAARNIQYVQHPVAAIQVLNVFVPAAYLHGSSVNGYQRATAPILMPNTVGGYLPGPADDPQRVTWPTNAGTIQQALKRGYVVVAAGIRGRTTVDKSGQRVGQAPAFIVDMKAAIRYVKYNQGRLPGDANRIITNGTSAGGATSALAGASGNSAYFEPALTALGAAPATDDIFAVSAYCPIHNLEHADMAYEWQFNGINDWHRYQPVAGTTKNGRPKFEPVSGQLTVEEQALSLALKAQFSTYLNQLKLTASDGTHLTLNEAGMGSFRDVVRQLLISSAQTAFDQGTDIHKYAGFVVTGNQVTDLDLSAYLKSLTRMKAVPAFDQLDLTSPENNLFGDATAKAKHFTALAQTRSTVTAQLADAELIQAINPLSYLTTTSSQVAKHWRIRHGAADRDTSFAIPIILAIMLENHGYGIDFALPWDIPHSGDYDLGDLFSWIDGLCQ",Km,[13],370 ± 40 µM
same,kcat,[13],46.02 ± 0.87 s⁻¹
same,kcat/Km,[13],125000 ± 15400 M⁻¹ s⁻¹
same,Km,[14],40 ± 9 µM
same,kcat,[14],0.26 ± 0.04 s⁻¹
same,kcat/Km,[14],6040 ± 570 M⁻¹ s⁻¹
same,Km,[15],30 ± 8 µM
same,kcat,[15],0.89 ± 0.044 s⁻¹
same,kcat/Km,[15],27200 ± 6280 M⁻¹ s⁻¹
same,Km,[16],50 ± 2 µM
same,kcat,[16],2.41 ± 0.10 s⁻¹
same,kcat/Km,[16],53600 ± 4620 M⁻¹ s⁻¹
same,Km,[17],30 ± 20 µM
same,kcat,[17],1.49 ± 0.19 s⁻¹
same,kcat/Km,[17],52200 ± 25600 M⁻¹ s⁻¹
same,Km,[18],100 ± 10 µM
same,kcat,[18],1.12 ± 0.03 s⁻¹
same,kcat/Km,[18],11700 ± 1290 M⁻¹ s⁻¹
